{
  "source": "paper PMC8408231",
  "about": "“The basic helix-loop-helix transcription factor TabHLH1 increases chlorogenic acid and luteolin biosynthesis in Taraxacum antungense Kitag”",
  "molecular_target": "T1, TabHLH1 (Taraxacum antungense Kitag, UniProt A0A482LNV1 1-521)",
  "T1 sequence": "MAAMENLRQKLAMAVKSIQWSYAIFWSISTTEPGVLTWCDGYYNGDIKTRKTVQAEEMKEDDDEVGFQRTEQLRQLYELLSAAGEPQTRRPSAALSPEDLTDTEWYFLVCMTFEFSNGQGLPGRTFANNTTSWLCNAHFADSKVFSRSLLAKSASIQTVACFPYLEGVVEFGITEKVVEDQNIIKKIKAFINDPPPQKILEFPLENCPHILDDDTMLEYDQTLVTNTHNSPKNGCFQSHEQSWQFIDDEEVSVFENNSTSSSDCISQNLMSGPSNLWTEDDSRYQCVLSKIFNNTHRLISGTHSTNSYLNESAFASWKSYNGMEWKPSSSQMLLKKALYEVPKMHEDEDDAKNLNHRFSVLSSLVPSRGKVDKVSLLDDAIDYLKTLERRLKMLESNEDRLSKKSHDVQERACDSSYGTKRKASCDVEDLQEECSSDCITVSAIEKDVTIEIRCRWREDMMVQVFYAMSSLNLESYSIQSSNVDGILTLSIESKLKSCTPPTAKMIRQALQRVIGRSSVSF",
  "experiment": "EMSA; unlabeled identical cold probe used as control; EMSA binding buffer (Beyotime, 10x stock), 25 °C, 30 min; salt and pH not stated",
  "conditions": "protein: recombinant; tags: GST (pGEX4T-1); chain copies: 2; label: 3' biotin on both strands; blunt",
  "data": [
    {"binder": "TaHQT2 promoter E-box probe (dsDNA) DNA 1: CGAACGGAGGAACATGTGTGCTCTGAAAAT DNA 2: ATTTTCAGAGCACACATGTTCCTCCGTTCG", "values": [
      {"measurement": "binding result", "result": "binds"}
    ]},
    {"binder": "Ta4CL promoter E-box probe (dsDNA) DNA 1: TGGCCAAAATCCCATGTGATTTCGGCCCAC DNA 2: GTGGGCCGAAATCACATGGGATTTTGGCCA", "values": [
      {"measurement": "binding result", "result": "binds"}
    ]}
  ]
}
